Experimental data taken from PMC6774351 (Nature, 2019).

Biological target: the molecule itself
Assay: SEC

B1: engineered NEK7 dimer (artificial NEK7 dimer based on the PKR dimer structure) (enzyme)
chain: not shown
stoichiometry N: 2
